Legend:
[1] = tested on: Fer (mouse); experiment: phosphorylation enrichment, bacterial display (enrichment ratio); higher = better substrate or ligand; peptides without Tyr show the background
[2] = target: EPHB1 (UniProt P54762); experiment: as above
[3] = tested on: c-Src; experiment: as above
[4] = target: Fyn (UniProt P06241); experiment: as above
[5] = target: FGFR3 (UniProt P22607); experiment: as above
[6] = tested on: AncSZ; experiment: as above
[7] = target: Jak2 (UniProt O60674); experiment: as above
[8] = target: Fes (UniProt P07332); experiment: as above
[9] = tested on: c-Abl (mouse); experiment: as above
[10] = target: FGFR1 (UniProt P11362); experiment: as above
[11] = target: MERTK (UniProt Q12866); experiment: as above
Sequence of MERTK (Q12866 whole entry, looked up): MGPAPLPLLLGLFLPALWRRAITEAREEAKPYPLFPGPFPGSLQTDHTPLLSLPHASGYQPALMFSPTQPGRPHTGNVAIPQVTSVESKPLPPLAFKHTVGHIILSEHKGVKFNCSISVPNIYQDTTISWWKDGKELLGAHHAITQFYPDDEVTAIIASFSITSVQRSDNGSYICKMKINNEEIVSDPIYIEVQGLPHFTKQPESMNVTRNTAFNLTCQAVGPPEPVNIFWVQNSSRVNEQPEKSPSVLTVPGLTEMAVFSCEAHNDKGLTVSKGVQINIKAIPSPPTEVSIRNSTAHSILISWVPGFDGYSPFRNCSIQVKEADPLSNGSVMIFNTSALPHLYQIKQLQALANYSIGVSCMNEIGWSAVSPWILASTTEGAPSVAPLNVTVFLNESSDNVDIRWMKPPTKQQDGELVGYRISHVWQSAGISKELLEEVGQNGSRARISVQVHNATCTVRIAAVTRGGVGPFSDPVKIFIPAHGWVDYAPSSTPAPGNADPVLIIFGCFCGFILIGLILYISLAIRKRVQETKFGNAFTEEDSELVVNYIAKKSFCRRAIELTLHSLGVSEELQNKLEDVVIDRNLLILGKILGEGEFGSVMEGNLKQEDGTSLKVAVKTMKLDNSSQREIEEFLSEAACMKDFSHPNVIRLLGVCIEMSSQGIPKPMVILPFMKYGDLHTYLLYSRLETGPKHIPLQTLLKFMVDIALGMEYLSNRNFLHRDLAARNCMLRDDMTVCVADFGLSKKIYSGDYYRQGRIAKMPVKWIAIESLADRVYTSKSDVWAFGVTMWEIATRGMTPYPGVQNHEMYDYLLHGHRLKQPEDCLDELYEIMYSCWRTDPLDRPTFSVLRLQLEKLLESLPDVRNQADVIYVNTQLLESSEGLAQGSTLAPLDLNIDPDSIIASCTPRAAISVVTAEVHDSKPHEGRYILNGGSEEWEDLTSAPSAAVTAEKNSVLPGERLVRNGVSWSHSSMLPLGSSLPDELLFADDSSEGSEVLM

[12] = target: EPHB2 (UniProt P29323); experiment: as above
Sequence of EPHB2 (P29323 whole entry, looked up): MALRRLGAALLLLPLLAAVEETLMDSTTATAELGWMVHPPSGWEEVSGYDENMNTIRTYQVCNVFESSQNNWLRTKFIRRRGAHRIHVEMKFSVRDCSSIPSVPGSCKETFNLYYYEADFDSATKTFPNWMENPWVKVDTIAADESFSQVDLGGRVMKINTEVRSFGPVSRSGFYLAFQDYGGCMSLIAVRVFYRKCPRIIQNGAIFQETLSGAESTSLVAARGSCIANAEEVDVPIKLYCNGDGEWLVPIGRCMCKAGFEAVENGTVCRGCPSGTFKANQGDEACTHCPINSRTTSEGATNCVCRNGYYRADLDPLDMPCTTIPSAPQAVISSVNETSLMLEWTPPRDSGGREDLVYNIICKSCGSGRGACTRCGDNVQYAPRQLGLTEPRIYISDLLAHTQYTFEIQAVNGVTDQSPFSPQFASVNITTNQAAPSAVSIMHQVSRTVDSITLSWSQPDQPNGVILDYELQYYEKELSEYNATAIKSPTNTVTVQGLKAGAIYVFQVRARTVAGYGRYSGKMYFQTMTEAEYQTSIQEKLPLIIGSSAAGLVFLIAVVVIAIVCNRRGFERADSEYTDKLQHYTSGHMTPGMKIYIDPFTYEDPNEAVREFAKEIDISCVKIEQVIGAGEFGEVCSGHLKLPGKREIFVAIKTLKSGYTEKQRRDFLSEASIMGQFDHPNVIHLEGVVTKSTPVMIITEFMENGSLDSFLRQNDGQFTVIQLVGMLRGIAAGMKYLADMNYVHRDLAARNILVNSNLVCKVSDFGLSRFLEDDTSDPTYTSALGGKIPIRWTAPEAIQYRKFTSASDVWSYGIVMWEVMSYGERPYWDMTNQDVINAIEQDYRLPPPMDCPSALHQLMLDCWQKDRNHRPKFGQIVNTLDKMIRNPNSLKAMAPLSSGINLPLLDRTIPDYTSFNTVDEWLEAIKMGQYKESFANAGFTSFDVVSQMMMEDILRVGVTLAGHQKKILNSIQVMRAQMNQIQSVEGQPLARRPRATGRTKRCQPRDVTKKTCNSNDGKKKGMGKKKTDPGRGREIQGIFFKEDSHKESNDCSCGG

[13] = target: Hck (UniProt P08631); experiment: as above
Sequence of Hck (P08631 whole entry, looked up): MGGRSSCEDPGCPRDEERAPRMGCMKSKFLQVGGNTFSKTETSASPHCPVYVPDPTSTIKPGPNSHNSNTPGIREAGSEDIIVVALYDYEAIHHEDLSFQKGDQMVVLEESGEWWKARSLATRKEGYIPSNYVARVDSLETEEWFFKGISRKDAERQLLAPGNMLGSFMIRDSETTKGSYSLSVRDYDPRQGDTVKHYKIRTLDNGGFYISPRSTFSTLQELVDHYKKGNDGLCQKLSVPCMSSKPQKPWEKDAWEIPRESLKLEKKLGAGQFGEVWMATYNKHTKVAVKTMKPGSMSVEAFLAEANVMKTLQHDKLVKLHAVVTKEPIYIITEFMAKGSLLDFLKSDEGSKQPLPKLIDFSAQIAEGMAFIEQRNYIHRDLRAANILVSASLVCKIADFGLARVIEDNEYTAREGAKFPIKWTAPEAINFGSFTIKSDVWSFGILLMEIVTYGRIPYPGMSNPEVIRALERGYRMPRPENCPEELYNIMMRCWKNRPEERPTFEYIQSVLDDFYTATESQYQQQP

[14] = target: Grb2 SH2 (UniProt P62993); experiment: SH2 binding enrichment of the phosphorylated peptide, bacterial display (enrichment ratio); higher = better substrate or ligand; peptides without Tyr show the background
Sequence of Grb2 SH2 (P62993 whole entry, looked up): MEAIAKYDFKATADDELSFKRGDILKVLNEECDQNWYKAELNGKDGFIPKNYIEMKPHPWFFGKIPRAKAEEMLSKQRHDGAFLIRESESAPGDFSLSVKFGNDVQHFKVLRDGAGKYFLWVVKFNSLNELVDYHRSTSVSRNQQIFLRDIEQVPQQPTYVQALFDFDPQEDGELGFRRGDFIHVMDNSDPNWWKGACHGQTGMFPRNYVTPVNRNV

[15] = target: c-Src SH2; experiment: as above
[16] = target: SHP2-C SH2; experiment: as above
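For SH2 binding enrichment of the phosphorylated peptide, bacterial display in this document: peptide library displayed on the E. coli surface as eCPX fusions, selected cells deep-sequenced, score is each peptide's frequency after selection divided by its frequency in the input.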
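For phosphorylation enrichment, bacterial display in this document: 11-residue human phosphosite peptides and single-mutation variants displayed on the E. coli surface, counted by deep sequencing, each peptide's frequency after selection divided by its frequency in the unselected input library; frequency after pTyr selection over input frequency; kinase dosed for 20-30% of maximal phosphorylation in three min.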

Sequence of EPHB1 (P54762 whole entry, looked up): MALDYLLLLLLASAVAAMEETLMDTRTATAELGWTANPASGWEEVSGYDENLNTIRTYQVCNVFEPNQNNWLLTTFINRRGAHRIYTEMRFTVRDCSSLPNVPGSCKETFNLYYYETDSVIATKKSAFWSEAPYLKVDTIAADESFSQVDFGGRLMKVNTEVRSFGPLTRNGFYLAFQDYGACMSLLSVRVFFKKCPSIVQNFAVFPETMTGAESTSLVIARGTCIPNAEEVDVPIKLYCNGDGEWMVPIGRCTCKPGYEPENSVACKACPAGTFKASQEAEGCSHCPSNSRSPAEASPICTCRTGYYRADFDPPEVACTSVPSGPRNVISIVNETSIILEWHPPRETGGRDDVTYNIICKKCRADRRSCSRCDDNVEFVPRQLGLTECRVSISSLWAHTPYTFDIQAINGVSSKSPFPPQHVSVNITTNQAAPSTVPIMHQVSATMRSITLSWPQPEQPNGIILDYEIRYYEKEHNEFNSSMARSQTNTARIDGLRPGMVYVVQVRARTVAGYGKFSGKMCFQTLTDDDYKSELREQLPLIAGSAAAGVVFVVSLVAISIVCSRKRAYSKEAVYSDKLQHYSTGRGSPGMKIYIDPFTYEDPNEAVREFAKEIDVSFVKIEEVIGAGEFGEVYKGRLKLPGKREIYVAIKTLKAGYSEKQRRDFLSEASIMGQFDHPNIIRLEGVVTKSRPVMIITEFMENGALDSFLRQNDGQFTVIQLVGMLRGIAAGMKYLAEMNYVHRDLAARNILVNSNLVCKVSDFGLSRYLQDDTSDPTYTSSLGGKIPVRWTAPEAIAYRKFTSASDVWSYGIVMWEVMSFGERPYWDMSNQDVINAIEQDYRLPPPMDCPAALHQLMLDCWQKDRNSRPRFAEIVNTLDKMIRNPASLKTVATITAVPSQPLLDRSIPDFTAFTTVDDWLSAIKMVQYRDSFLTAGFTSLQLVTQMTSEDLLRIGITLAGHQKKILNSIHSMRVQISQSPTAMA
Sequence of FGFR3 (P22607 whole entry, looked up): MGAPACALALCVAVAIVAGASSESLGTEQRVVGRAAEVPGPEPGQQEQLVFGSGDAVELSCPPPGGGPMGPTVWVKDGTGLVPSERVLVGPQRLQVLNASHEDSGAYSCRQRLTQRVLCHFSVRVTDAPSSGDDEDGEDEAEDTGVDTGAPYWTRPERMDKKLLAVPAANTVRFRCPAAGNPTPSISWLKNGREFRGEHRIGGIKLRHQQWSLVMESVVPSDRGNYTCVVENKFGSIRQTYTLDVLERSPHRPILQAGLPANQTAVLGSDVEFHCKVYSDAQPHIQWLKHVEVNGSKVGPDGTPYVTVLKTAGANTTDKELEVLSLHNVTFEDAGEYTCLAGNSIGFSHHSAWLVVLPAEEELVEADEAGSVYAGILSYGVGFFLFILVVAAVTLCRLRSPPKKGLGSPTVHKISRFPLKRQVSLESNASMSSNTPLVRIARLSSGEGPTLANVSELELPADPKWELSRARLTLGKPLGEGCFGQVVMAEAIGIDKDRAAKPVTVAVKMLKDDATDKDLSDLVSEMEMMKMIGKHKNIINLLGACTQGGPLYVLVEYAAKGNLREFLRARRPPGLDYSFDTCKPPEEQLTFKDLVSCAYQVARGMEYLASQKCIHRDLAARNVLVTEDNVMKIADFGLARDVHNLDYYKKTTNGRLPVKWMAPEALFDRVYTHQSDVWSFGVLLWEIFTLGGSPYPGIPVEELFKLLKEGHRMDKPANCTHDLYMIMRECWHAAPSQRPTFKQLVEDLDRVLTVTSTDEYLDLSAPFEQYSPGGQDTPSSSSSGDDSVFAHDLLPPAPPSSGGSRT

Row | Sequence | phosphorylation enrichment [1] | phosphorylation enrichment [2] | phosphorylation enrichment [3] | phosphorylation enrichment [4] | phosphorylation enrichment [5] | phosphorylation enrichment [6] | phosphorylation enrichment [7] | phosphorylation enrichment [8] | phosphorylation enrichment [9] | phosphorylation enrichment [10] | phosphorylation enrichment [11] | phosphorylation enrichment [12] | phosphorylation enrichment [13] | SH2 binding enrichment [14] | SH2 binding enrichment [15] | SH2 binding enrichment [16]
1 | MVSLFYGTAIF [OR10C1_Y251_L255I] | 0.937 | 0.619 | 1.92 | 1.1 | 0.819 | 1.41 | 1.4 | 1.53 | 1.22 | 0.477 | 0.63 | 0.666 | 0.995 | 0.653 | 0.46 | 0.756
2 | NDENIYKGLPD [VAV3_Y141_D139N] | 0.579 | 0.564 | 1.78 | 1.23 | 0.799 | 1.34 | 1.14 | 1.2 | 1.08 | 0.529 | 0.542 | 0.644 | 1.4 | 1.1 | 0.494 | 0.645
3 | NDFGNYNQQPS [HNRNPA2B1_Y306] | 0.472 | 0.691 | 0.505 | 0.596 | 0.493 | 0.764 | 0.788 | 0.85 | 0.74 | 0.589 | 0.478 | 0.604 | 0.504 | 0.915 | 0.382 | 0.66
4 | NEKNIYRVPLM [BMPR2_Y247] | 0.439 | 0.377 | 0.877 | 1.96 | 0.501 | 0.622 | 0.671 | 0.708 | 31.2 | 0.446 | 0.609 | 0.357 | 1.16 | 0.864 | 0.508 | 0.755
5 | NFFDLYGGEKF [PTPN11_Y66_D61N_YF] | 0.553 | 0.518 | 2.73 | 1.79 | 0.61 | 0.91 | 0.826 | 1.02 | 0.581 | 0.419 | 0.437 | 0.634 | 3.54 | 1.02 | 0.641 | 0.827
6 | NIKKEYTKMVQ [PMS2_Y181_A182T] | 0.27 | 0.394 | 0.426 | 0.378 | 0.439 | 0.494 | 0.49 | 0.492 | 0.502 | 0.808 | 0.452 | 0.333 | 0.385 | 0.983 | 0.784 | 0.456
7 | NKEAICSGFIR [SMCHD1_Y283_Y283C_YF] | 0.467 | 0.448 | 0.451 | 0.39 | 0.53 | 0.693 | 0.802 | 0.952 | 0.741 | 0.496 | 0.455 | 0.398 | 0.501 | 0.827 | 0.5 | 0.664
8 | NKHTTYTMEHI [ACTN1_Y708_N707T] | 0.397 | 0.394 | 0.45 | 0.419 | 0.445 | 0.527 | 0.447 | 0.575 | 0.514 | 0.395 | 0.434 | 0.4 | 0.451 | 0.865 | 0.565 | 0.787
9 | NKKFHYRELPV [ERN2_Y860_H858Y_YF] | 0.374 | 0.362 | 0.266 | 0.419 | 0.45 | 0.459 | 0.372 | 0.508 | 0.407 | 0.368 | 0.306 | 0.351 | 0.332 | 0.877 | 0.678 | 1.06
10 | NKVKFYIPFMN [NCR1_Y84_D87Y_YF] | 0.507 | 0.551 | 0.413 | 0.437 | 0.519 | 0.897 | 0.824 | 1.02 | 0.699 | 0.431 | 0.482 | 0.528 | 0.436 | 1.64 | 1.57 | 1.22
11 | NKVKFYIPYMN [NCR1_Y84_D87Y] | 0.469 | 0.599 | 0.495 | 0.394 | 0.655 | 0.919 | 0.893 | 1.06 | 0.609 | 0.483 | 0.473 | 0.496 | 0.431 | 1.74 | 1.51 | 1.65
12 | NLGQQYNSPQE [UMPS_Y432] | 0.498 | 0.563 | 0.374 | 0.495 | 0.675 | 0.895 | 0.78 | 0.974 | 0.634 | 0.614 | 0.413 | 0.579 | 0.502 | 0.814 | 0.573 | 0.602
13 | NLNGKCNKPRA [ANGPTL3_Y417_Y417C] | 0.64 | 0.322 | 0.393 | 0.422 | 0.446 | 0.596 | 0.435 | 0.558 | 0.388 | 0.39 | 0.44 | 0.41 | 0.347 | 1.23 | 0.496 | 1.24
14 | NLPGGYSGSVK [MCPH1_Y606] | 0.375 | 0.407 | 0.46 | 0.484 | 0.425 | 0.595 | 0.618 | 0.652 | 0.747 | 0.374 | 0.371 | 0.455 | 0.447 | 0.72 | 0.448 | 0.766
15 | NMSRIYSTTKV [ACE_Y151_A154T] | 0.319 | 0.296 | 0.431 | 0.425 | 0.36 | 0.441 | 0.421 | 0.443 | 0.583 | 0.341 | 0.366 | 0.302 | 0.382 | 0.972 | 0.396 | 1.06
16 | NPIGLYSAEIL [LDB3_Y202_T206I] | 3.44 | 3 | 1.11 | 0.839 | 0.562 | 0.751 | 0.876 | 0.879 | 0.568 | 0.419 | 6.37 | 2.6 | 1.04 | 0.635 | 0.415 | 0.852
17 | NREGVYTVSAP [TGFBI_Y537_F540S] | 1.12 | 0.537 | 8.38 | 10.9 | 0.523 | 0.757 | 0.719 | 0.705 | 0.565 | 0.462 | 1.16 | 0.517 | 2.34 | 0.834 | 0.472 | 0.769

Row | Sequence | phosphorylation enrichment [1] | phosphorylation enrichment [2] | phosphorylation enrichment [3] | phosphorylation enrichment [4] | phosphorylation enrichment [5] | phosphorylation enrichment [6] | phosphorylation enrichment [7] | phosphorylation enrichment [8] | phosphorylation enrichment [9] | phosphorylation enrichment [10] | phosphorylation enrichment [11] | phosphorylation enrichment [12] | phosphorylation enrichment [13] | SH2 binding enrichment [14] | SH2 binding enrichment [15] | SH2 binding enrichment [16]
18 | NRKGKYFNVER [ANAPC4_Y469] | 0.351 | 0.367 | 0.487 | 0.386 | 0.451 | 0.478 | 0.379 | 0.575 | 0.631 | 0.473 | 0.411 | 0.448 | 0.695 | 0.498 | 0.299 | 0.51
19 | NRNVRYLTLDI [AKR1C2_Y305] | 0.395 | 0.392 | 0.441 | 0.381 | 0.499 | 0.744 | 0.835 | 0.921 | 0.635 | 0.507 | 0.497 | 0.506 | 0.523 | 1.03 | 1.96 | 6.75
20 | NSAFFYKTAEE [CCT6B_Y250_G247A] | 0.47 | 0.521 | 0.38 | 0.524 | 0.696 | 0.962 | 0.927 | 1.23 | 0.593 | 0.452 | 0.439 | 0.472 | 0.496 | 1.19 | 0.565 | 0.923
21 | NSFKYYMSDDI [ATRX_Y204_C200S] | 0.501 | 0.503 | 0.499 | 0.434 | 0.659 | 0.87 | 0.871 | 1.01 | 0.627 | 0.567 | 0.451 | 0.542 | 0.443 | 0.943 | 1.05 | 0.746
22 | NSNAAYEQSHF [LRIF1_Y714] | 0.417 | 0.327 | 0.395 | 0.504 | 0.55 | 0.575 | 0.418 | 0.616 | 0.574 | 0.48 | 0.388 | 0.479 | 0.445 | 0.755 | 0.769 | 0.663
23 | NSRYTYKLEVK [USH2A_Y3747] | 0.505 | 0.618 | 0.42 | 0.437 | 0.687 | 1.12 | 0.982 | 1.29 | 0.795 | 0.427 | 0.396 | 0.689 | 0.478 | 0.962 | 0.644 | 0.911
24 | NYAKMYCNPDA [KNL1_Y489] | 0.59 | 0.673 | 0.626 | 0.463 | 0.667 | 1.12 | 1.17 | 1.1 | 0.989 | 0.561 | 0.498 | 0.608 | 0.518 | 0.795 | 2.11 | 0.531
25 | PAIFTYDEFKK [COL8A2_Y648_T645I_YF] | 0.304 | 0.398 | 3 | 0.952 | 0.501 | 1.47 | 1.12 | 1.11 | 1.03 | 0.374 | 0.594 | 0.359 | 1.66 | 0.829 | 0.509 | 0.888
26 | PATFTYDEFKK [COL8A2_Y648_YF] | 1.68 | 1.38 | 1.68 | 1.9 | 1.12 | 1.49 | 1.3 | 1.43 | 0.864 | 0.77 | 0.677 | 1.24 | 2.06 | 1.03 | 0.791 | 0.53
27 | PAVGIYNGNIN [CDCP1_Y707_D709G] | 0.588 | 0.605 | 1.64 | 1.49 | 0.884 | 0.67 | 1.15 | 1.15 | 1.08 | 0.396 | 0.574 | 0.652 | 1.55 | 0.696 | 0.44 | 0.708
28 | PEEKVYLSRGD [CRACR2A_Y141_H136P] | 0.778 | 1.06 | 1.01 | 0.88 | 1.29 | 1.44 | 1.22 | 1.77 | 1.35 | 0.706 | 0.735 | 0.573 | 1.1 | 0.804 | 0.457 | 0.529
29 | PEFINYHQHNS [BTK_Y361_L358F] | 0.335 | 0.299 | 1.03 | 0.552 | 0.947 | 0.709 | 0.933 | 0.607 | 0.491 | 0.821 | 0.507 | 0.515 | 0.485 | 0.659 | 0.608 | 0.659
30 | PFSEPYADFGG [APBA1_Y187_YF] | 0.719 | 0.543 | 3.39 | 1.15 | 0.957 | 1 | 0.991 | 1.29 | 1.38 | 1 | 0.76 | 0.488 | 0.786 | 0.862 | 0.868 | 0.659
31 | PFSSPYENSLI [EPOR_Y489_N487S_YF] | 3.51 | 1.24 | 0.674 | 1.34 | 1.3 | 1.4 | 0.941 | 1.42 | 0.705 | 0.604 | 0.891 | 1.15 | 1.21 | 14.1 | 6.34 | 1.03
32 | PFVFFYSFLLK [PTEN_Y178_R173P_YF] | 0.983 | 1.07 | 0.577 | 0.679 | 1.25 | 1.99 | 2.1 | 2.12 | 1.52 | 0.751 | 0.931 | 0.686 | 0.983 | 1.04 | 0.496 | 0.913
33 | PGPPGYCDSSH [COL12A1_Y3043_Q3048H] | 0.542 | 0.724 | 0.727 | 0.46 | 0.941 | 1.09 | 1.16 | 1.62 | 1.21 | 0.512 | 0.84 | 0.514 | 1.58 | 1.08 | 0.498 | 0.671

Reference: the supplement of paper PMC10065799, “High-throughput profiling of sequence recognition by tyrosine kinases and SH2 domains using bacterial peptide display” (eLife, 2023)
